# Laboratory results published in the supplement of paper PMC7125110.
# ± gives the standard error. For some assays here: Fewer inactive variants are shown than the library holds.
# B1: glmS ribozyme (parent)
# chain: AUAAAAGCGCCAGAACUACAGAAAUGUAGUUGACGAGGAGGAGGUUUAUCGAAUUUUCGGCGGAUGCCUCCAAA
# Key:
# Details in all cases: with glucosamine-6-phosphate
# glucosamine-6-phosphate [1] = variants of: B1; assay: kcat; higher = faster cleavage; RNA array
# In short: (§1)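 kobs was derived by fitting per-tile medians to one- or two-exponential decays after normalising signals to baseline and to non-cleaving reference variants. Those signals came from barcoded ribozyme variants transcribed in situ by E. coli RNA polymerase on sequenced MiSeq chips, followed through a hybridised Cy3 probe at 37 °C and imaged over ~14 h. Glucosamine-6-phosphate (40 μM to 10 mM) in HEPES/KCl/Mg(OAc)2 buffer was flowed in. Weighted Michaelis–Menten fits across concentrations then gave kcat and KM.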
# glucosamine-6-phosphate [2] = variants of: B1; assay: KM; higher = weaker cofactor use; RNA array
# In short: as §1
# glucosamine-6-phosphate [3] = variants of: B1; assay: self-cleavage kobs at 160 uM GlcN6P; higher = faster cleavage; RNA array
# In short: as §1
# glucosamine-6-phosphate [4] = variants of: B1; assay: self-cleavage kobs at 2500 uM GlcN6P; higher = faster cleavage; RNA array
# In short: as §1
# glucosamine-6-phosphate [5] = variants of: B1; assay: self-cleavage kobs at 10000 uM GlcN6P; higher = faster cleavage; RNA array
# In short: as §1
# glucosamine-6-phosphate [6] = variants of: B1; assay: self-cleavage kobs at 40 uM GlcN6P; higher = faster cleavage; RNA array
# In short: as §1
# glucosamine-6-phosphate [7] = variants of: B1; assay: self-cleavage kobs at 640 uM GlcN6P; higher = faster cleavage; RNA array
# In short: as §1
Variant,kcat (glucosamine-6-phosphate [1]),KM (glucosamine-6-phosphate [2]),self-cleavage kobs at 160 uM GlcN6P (glucosamine-6-phosphate [3]),self-cleavage kobs at 2500 uM GlcN6P (glucosamine-6-phosphate [4]),self-cleavage kobs at 10000 uM GlcN6P (glucosamine-6-phosphate [5]),self-cleavage kobs at 40 uM GlcN6P (glucosamine-6-phosphate [6]),self-cleavage kobs at 640 uM GlcN6P (glucosamine-6-phosphate [7])
A12U G37C,0.000148 ± 1.2e-05 s⁻¹,4210 ± 790 µM,< 1e-05 s⁻¹,5.79e-05 ± 8.6e-06 s⁻¹,0.000104 ± 9.8e-06 s⁻¹,,
A12U G37A,0.0147 ± 0.0035 s⁻¹,4700 ± 1500 µM,0.000398 ± 7.4e-05 s⁻¹,0.00456 ± 0.001 s⁻¹,0.0103 ± 0.0011 s⁻¹,0.000169 ± 2.3e-05 s⁻¹,0.00168 ± 0.00025 s⁻¹
A14C C16U,0.00104 ± 0.00016 s⁻¹,922 ± 250 µM,0.000144 ± 1.9e-05 s⁻¹,0.000655 ± 7.7e-05 s⁻¹,0.00118 ± 0.00016 s⁻¹,5.34e-05 ± 1.1e-05 s⁻¹,0.000451 ± 4.8e-05 s⁻¹
A12U U45A A53U,0.125 ± 0.042 s⁻¹,1100 ± 390 µM,,,,0.00437 ± 0.0009 s⁻¹,
A14C G66U,0.000181 ± 3.7e-05 s⁻¹,,,9.62e-05 ± 2e-05 s⁻¹,0.000191 ± 2.6e-05 s⁻¹,,8.12e-05 ± 1.4e-05 s⁻¹
G13U G59U C67U,1.71e-05 ± 6.1e-06 s⁻¹,,,,,,
A14C A53G C58A C70G,3.76e-05 ± 1.2e-05 s⁻¹,,5.16e-05 ± 2e-05 s⁻¹,,,,
G13A U47A,0.000438 ± 6e-05 s⁻¹,3210 ± 750 µM,,0.000178 ± 3.2e-05 s⁻¹,0.000349 ± 6.5e-05 s⁻¹,,7.42e-05 ± 1.6e-05 s⁻¹
A12U U47C,0.0109 ± 0.0038 s⁻¹,1790 ± 840 µM,0.000599 ± 0.0001 s⁻¹,0.0111 ± 0.0021 s⁻¹,0.00873 ± 0.0011 s⁻¹,0.00032 ± 3.3e-05 s⁻¹,0.00299 ± 0.00033 s⁻¹
A12U U47A,0.063 ± 0.02 s⁻¹,1490 ± 570 µM,0.0041 ± 0.00089 s⁻¹,0.0403 ± 0.011 s⁻¹,0.0554 ± 0.01 s⁻¹,0.00189 ± 0.00018 s⁻¹,0.0249 ± 0.0068 s⁻¹
A14C A15G,0.00631 ± 0.0025 s⁻¹,6250 ± 2900 µM,0.000127 ± 1.8e-05 s⁻¹,0.00192 ± 0.00022 s⁻¹,0.00369 ± 0.00064 s⁻¹,5.61e-05 ± 7.9e-06 s⁻¹,0.000597 ± 6.6e-05 s⁻¹
A14C A15C,0.00204 ± 0.00038 s⁻¹,2740 ± 760 µM,0.000103 ± 1.6e-05 s⁻¹,0.0011 ± 0.00014 s⁻¹,0.00157 ± 0.00017 s⁻¹,4.27e-05 ± 6.9e-06 s⁻¹,0.000339 ± 4.6e-05 s⁻¹
A12U G51A,1.05e-05 ± 2.6e-06 s⁻¹,,,,,,
G13A C70U,0.000795 ± 0.00019 s⁻¹,2410 ± 870 µM,7.83e-05 ± 1.4e-05 s⁻¹,0.000388 ± 6.1e-05 s⁻¹,0.000676 ± 9.5e-05 s⁻¹,,0.000154 ± 1.7e-05 s⁻¹
A14G A42C,3.47e-05 ± 2.4e-06 s⁻¹,1730 ± 410 µM,,1.97e-05 ± 9.6e-06 s⁻¹,2.99e-05 ± 1e-05 s⁻¹,,
G13U A14U,0.000743 ± 0.00015 s⁻¹,2270 ± 1000 µM,8.56e-05 ± 2.3e-05 s⁻¹,0.000331 ± 4.6e-05 s⁻¹,0.00066 ± 7.3e-05 s⁻¹,,0.000174 ± 3.7e-05 s⁻¹

Variant,kcat (glucosamine-6-phosphate [1]),KM (glucosamine-6-phosphate [2]),self-cleavage kobs at 160 uM GlcN6P (glucosamine-6-phosphate [3]),self-cleavage kobs at 2500 uM GlcN6P (glucosamine-6-phosphate [4]),self-cleavage kobs at 10000 uM GlcN6P (glucosamine-6-phosphate [5]),self-cleavage kobs at 40 uM GlcN6P (glucosamine-6-phosphate [6]),self-cleavage kobs at 640 uM GlcN6P (glucosamine-6-phosphate [7])
G13U C68G,2.36e-05 ± 6.5e-06 s⁻¹,,,,,,
A14C G37C,< 1e-05 s⁻¹,,,,< 1e-05 s⁻¹,< 1e-05 s⁻¹,< 1e-05 s⁻¹
A14C G37A,0.000437 ± 0.00013 s⁻¹,,6.1e-05 ± 1.7e-05 s⁻¹,0.000201 ± 3e-05 s⁻¹,0.000388 ± 6.8e-05 s⁻¹,,8.51e-05 ± 1.4e-05 s⁻¹
A14C C16G A53U,2.08e-05 ± 7.9e-07 s⁻¹,1700 ± 260 µM,,,,,
A14C U56A,0.00449 ± 0.0013 s⁻¹,3990 ± 1600 µM,0.000133 ± 2.8e-05 s⁻¹,0.00196 ± 0.00028 s⁻¹,0.00318 ± 0.00032 s⁻¹,7.03e-05 ± 9e-06 s⁻¹,0.000559 ± 6.3e-05 s⁻¹
A14C G41U,0.000291 ± 6.9e-05 s⁻¹,,,0.000161 ± 2.2e-05 s⁻¹,0.000272 ± 4.2e-05 s⁻¹,,0.000102 ± 1.6e-05 s⁻¹
G13C U54C,0.000135 ± 1.9e-05 s⁻¹,2870 ± 1000 µM,,5.89e-05 ± 1.2e-05 s⁻¹,0.000107 ± 1.7e-05 s⁻¹,,
G13C U54A,0.000202 ± 4.2e-05 s⁻¹,8810 ± 3600 µM,,4.26e-05 ± 8.3e-06 s⁻¹,0.000108 ± 7.3e-06 s⁻¹,,
A14G A39C,0.0183 ± 0.0021 s⁻¹,3470 ± 520 µM,0.000699 ± 0.00017 s⁻¹,0.00921 ± 0.0025 s⁻¹,0.0134 ± 0.0019 s⁻¹,0.000225 ± 3.6e-05 s⁻¹,0.00281 ± 0.00047 s⁻¹
A12U G13C,< 1e-05 s⁻¹,,< 1e-05 s⁻¹,,,< 1e-05 s⁻¹,< 1e-05 s⁻¹
A14C G26A,0.00194 ± 0.00022 s⁻¹,1030 ± 190 µM,,0.00142 ± 0.00041 s⁻¹,0.00166 ± 0.00037 s⁻¹,6.7e-05 ± 1.7e-05 s⁻¹,0.000887 ± 0.00023 s⁻¹
G13C A14G,0.00129 ± 0.00022 s⁻¹,3980 ± 950 µM,4.16e-05 ± 8.8e-06 s⁻¹,0.000557 ± 7.3e-05 s⁻¹,0.000855 ± 0.00013 s⁻¹,,0.000189 ± 2.5e-05 s⁻¹
A14G A15U U30G,0.0196 ± 0.0037 s⁻¹,263 ± 69 µM,0.00652 ± 0.0021 s⁻¹,0.0232 ± 0.0085 s⁻¹,,0.00266 ± 0.00038 s⁻¹,0.0127 ± 0.0037 s⁻¹
A12U G40U,0.0088 ± 0.0017 s⁻¹,1410 ± 390 µM,0.000749 ± 8.6e-05 s⁻¹,0.00609 ± 0.00085 s⁻¹,0.00785 ± 0.00081 s⁻¹,0.000308 ± 2.8e-05 s⁻¹,0.00235 ± 0.00038 s⁻¹
G13U G38C,< 1e-05 s⁻¹,,,,< 1e-05 s⁻¹,,< 1e-05 s⁻¹
